Experimental data reported in patent US20040209289A1 (IMMUNEX, published 2004).

B1: murine BTL-II (full length, expressed on transfected 293 cells) (ligand)
chain: FRVVGPNLPILAKVGEDALLTCQLLPKRTTAHMEVRWYRSDPAMPVIMYRDGAVVTGLPMEGYGGRAEWMEDSTEEGSVALKIRQVQPSDDGQYWCRFQEGDYWRETSVLLQVAALGSSPNIHVEGLGEGEVQLVCTSRGWFPEPEVHWEGIWGEKLMSFSENHVPGEDGLFYVEDTLMVRNDSVETISCFIYSHGLRETQEATIALSERLQTELVSVSVIGHSQPSPVQVGENIELTCHLSPQTDAQNLEVRWLRSRYYPAVHVYANGTHVAGEQMVEYKGRTSLVTDAIHEGKLTLQIHNARTSDEGQYRCLFGKDGVYQEARVDVQVTAVGSTPRITREVLKDGGMQLRCTSDGWFPRPHVQWRDRDGKTMPSFSEAFQQGSQELFQVETLLLVTNGSMVNVTCSISLPLGQEKTARFPLSDSKIALLWMTLPVVVLPLAMAMDLIKVKRRRRTNEQTHSSNQENNKNDENHRRRLPSDERLR
B2: murine CD80 (full length, expressed on transfected 293 cells) (ligand, UniProt Q00609 38-306, looked up)
chain: VDEQLSKSVKDKVLLPCRYNSPHEDESEDRIYWQKHDKVVLSVIAGKLKVWPEYKNRTLYDNTTYSLIILGLVLSDRGTYSCVVQKKERGTYEVKHLALVKLSIKADFSTPNITESGNPSADTKRITCFASGGFPKPRFSWLENGRELPGINTTISQDPESELYTISSQLDFNTTRNHTIKCLIKYGDAHVSEDFTWEKPPEDPPDSKNTLVLFGAGFGAVITVVVIVVIIKCFCKHRSCFRRNEASRETNNSLTFGPEEALAEQTVFL
notes: whole, on cells; also called B7-1
B3: murine B7RP-1 (full length, expressed on transfected 293 cells) (ligand, UniProt Q9JHJ8 44-322, looked up)
chain: ASAETEVGAMVGSNVVLSCIDPHRRHFNLSGLYVYWQIENPEVSVTYYLPYKSPGINVDSSYKNRGHLSLDSMKQGNFSLYLKNVTPQDTQEFTCRVFMNTATELVKILEEVVRLRVAANFSTPVISTSDSSNPGQERTYTCMSKNGYPEPNLYWINTTDNSLIDTALQNNTVYLNKLGLYDVISTLRLPWTSRGDVLCCVENVALHQNITSISQAESFTGNNTKNPQETHNNELKVLVPVLAVLAAAAFVSFIIYRRTRPHRSYTGPKTVQLELTDHA
notes: whole, on cells; also called B7h; B7-H2

Target: T1, CTLA4-huFC (extracellular region of murine CTLA4 fused to a human Fc region of an IgG1 antibody) (murine; human, UniProt P09793 36-161; P01857 99-330 = IgG part, limits assumed)
T1 construct: extracellular domain;domain: Fc region; Made in transfected cells and purified by Protein A chromatography
T1 sequence (P09793 other isoform, or with tags, fused parts or gaps limits assumed): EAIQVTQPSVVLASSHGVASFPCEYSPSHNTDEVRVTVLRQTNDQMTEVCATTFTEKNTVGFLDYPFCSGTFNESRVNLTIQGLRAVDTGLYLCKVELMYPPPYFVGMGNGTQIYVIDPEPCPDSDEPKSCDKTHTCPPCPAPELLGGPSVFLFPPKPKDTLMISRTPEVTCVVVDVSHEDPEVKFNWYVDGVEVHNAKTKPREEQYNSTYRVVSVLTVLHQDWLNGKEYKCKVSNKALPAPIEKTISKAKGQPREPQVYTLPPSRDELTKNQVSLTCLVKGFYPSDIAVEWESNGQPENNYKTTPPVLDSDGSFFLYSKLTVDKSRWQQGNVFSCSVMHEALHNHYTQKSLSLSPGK
Test: FACS staining of transfected 293 cells with Fc fusion protein, labeled anti-human IgG Fc detection
Experimental: (§1) Full length versions of each of three murine cDNAs (encoding BTL-II, B7RP-1, CD80) were inserted into a vector appropriate for expression. About 10 μg of each of these constructs, along with an empty vector, were used separately to transfect 293 cells. Two days post transfection, about one million cells from each of the four transfections were stained with each of the fusion proteins described above. Bound protein was detected using a fluorescently labeled antibody against the human IgG Fc region. The stained cells were analyzed by FACS.

binding result	Binder
no binding	B1
binds	B2
no binding	B3

Target: T2, mCD28-huFC (extracellular region of murine CD28 fused to a human Fc region from an IgG1 antibody) (murine; human, UniProt P31041 20-150; P01857 100-330 = IgG part)
T2 construct: extracellular domain;domain: Fc region; Bought from R & D Systems
T2 sequence (P31041 other isoform, or with tags, fused parts or gaps limits assumed): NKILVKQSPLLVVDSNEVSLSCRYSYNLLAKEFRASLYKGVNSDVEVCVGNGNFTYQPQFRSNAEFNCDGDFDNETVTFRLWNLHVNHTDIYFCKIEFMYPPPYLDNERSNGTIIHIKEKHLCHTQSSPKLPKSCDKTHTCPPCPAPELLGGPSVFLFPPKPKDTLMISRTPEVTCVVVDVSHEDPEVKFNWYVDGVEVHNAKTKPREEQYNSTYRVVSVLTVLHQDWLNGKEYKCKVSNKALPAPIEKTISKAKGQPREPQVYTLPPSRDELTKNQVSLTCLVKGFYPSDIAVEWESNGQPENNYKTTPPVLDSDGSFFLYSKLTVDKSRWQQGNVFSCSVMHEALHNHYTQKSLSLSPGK
Test: as above
Experimental: as §1

binding result	Binder
no binding	B1
binds	B2
no binding	B3

Target: T3, ICOS-huFC (extracellular region of murine ICOS fused to a human Fc region from an IgG1 antibody) (murine; human, UniProt Q9WVS0 21-144; P01857 99-330 = IgG part, limits assumed)
T3 construct: extracellular domain;domain: Fc region; Made in transfected cells and purified by Protein A chromatography
T3 sequence (Q9WVS0 other isoform, or with tags, fused parts or gaps limits assumed): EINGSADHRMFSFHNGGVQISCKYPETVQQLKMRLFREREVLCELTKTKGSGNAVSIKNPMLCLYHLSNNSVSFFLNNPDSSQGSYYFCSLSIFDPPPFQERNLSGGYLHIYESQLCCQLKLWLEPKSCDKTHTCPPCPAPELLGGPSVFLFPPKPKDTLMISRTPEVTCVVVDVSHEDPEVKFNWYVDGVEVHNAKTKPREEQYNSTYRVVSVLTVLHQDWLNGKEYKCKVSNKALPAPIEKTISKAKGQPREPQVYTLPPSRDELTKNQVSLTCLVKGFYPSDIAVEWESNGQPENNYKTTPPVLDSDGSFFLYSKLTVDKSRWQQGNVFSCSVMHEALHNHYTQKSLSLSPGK
Test: as above
Experimental: as §1

binding result	Binder
no binding	B1
no binding	B2
binds	B3

Target: T4, PD1-huFC (extracellular region of murine PD-1 fused to a human Fc region of an IgG1 antibody) (murine; human, UniProt Q02242 25-169; P01857 100-330 = IgG part)
T4 construct: extracellular domain;domain: Fc region; Bought from R & D Systems
T4 sequence (Q02242 other isoform, or with tags, fused parts or gaps limits assumed): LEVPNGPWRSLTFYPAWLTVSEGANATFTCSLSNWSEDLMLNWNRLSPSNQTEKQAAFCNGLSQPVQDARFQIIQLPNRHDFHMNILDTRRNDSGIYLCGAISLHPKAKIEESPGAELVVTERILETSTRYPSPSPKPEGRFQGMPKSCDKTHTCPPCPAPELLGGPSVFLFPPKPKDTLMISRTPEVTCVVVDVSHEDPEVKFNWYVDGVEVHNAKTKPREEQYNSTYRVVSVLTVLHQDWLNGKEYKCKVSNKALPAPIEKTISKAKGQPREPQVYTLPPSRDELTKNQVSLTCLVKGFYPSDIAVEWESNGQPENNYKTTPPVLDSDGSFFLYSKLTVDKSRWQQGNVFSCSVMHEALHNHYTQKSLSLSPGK
Test: as above
Experimental: as §1

binding result	Binder
no binding	B1
no binding	B2
no binding	B3
